Test results published in patent US7807384B2, “Low density lipoprotein binding proteins and their use in diagnosing and treating atherosclerosis” (Boston Heart Foundation, Inc., priority 1996, dated 2010).
Values belong to the molecule of their own block, whether it stands above or below them.

Key:
apo E knockout mice [1] = experiment: Aortic lesion area (Sudan IV staining) in LBP-immunized apo E knockout mice; assay type: in vivo, mouse; conditions: for Effect of immunization on lesions / lesion area: apo E knockout mice; for Lesion Area % Coverage: apo E mice, 26 weeks of age, control 9.40
Procedure: (§1) Separate immunization experiments were performed with each of LBP-1, LBP-2, and LBP-J. Immunity was induced by injecting apo E knockout mice with the LBP protein (LBP-1, LBP-2, or LBP-3) together with an RIBI adjuvant (RIBI ImmunoChem Research, Inc., Hamilton, Mont.). Apo E knockout mice (Jackson Laboratories, Bar Harbor, Me.) are hyperlipidemic and thus a model for human atherosclerosis. Apo E knockout mice have high levels of plasma cholesterol and develop naturally-occurring atherosclerotic-like lesions.
(§2) Four week old apo E knockout mice (Jackson Laboratories, Bar Harbor, Me.) were ear tagged, randomly assigned to different cages and weighed. Body weights were determined weekly. Animals were allowed to habituate for 1 week. Normal rodent chow was provided ad libitum and animals were maintained in a 12:12 light:dark cycle. The following four groups of mice were treated with either recombinant LBP proteins (40 μg of recombinant protein/mouse) plus RIBI adjuvant or RIBI adjuvant alone (control group).
(§3) Apo E knockout mice were sacrificed at 26 weeks of age. The mice were anesthetized with methoxyfluorane and exanguinated via cardiac puncture. A midline thoracotomy was performed, a cannula inserted into the right ventricle and perfusate allowed unrestricted flow via an incision into the right atrium. The mice were perfused with saline, followed by 10% phosphate buffered formalin until fasciculations stopped. At this time, the aorta was exposed and adventitial fat removed in situ. The aorta was then removed from the heart down to the iliac bifurcation and placed in 10% phosphate buffered formalin overnight.
The aorta was stained as follows: after a brief 70% ethanol rinse, it was immersed in a filtered solution of 0.5% (weight/volume) Sudan IV in 35% ethanol/50% acetone with continuous shaking for 10 minutes at room temperature. Unbound dye was removed by incubating the aorta in an 80% ethanol solution with shaking until the background color was clear. The vessel was then rinsed in distilled water, placed in physiological saline and opened longitudinally from the aortic arch down to the iliac bifurcation. The vessel was pinned out and photographed. Photographs were then digitized using an Astra 1200S scanner (UMAX Technologies Inc., Freemont, Calif.) and a commercially available graphics program (Canvas; Deneba Software, Miami Fla.). Total and lesion areas were determined using the signal processing toolbox of MATLAB (The Mathworks Inc., Natick, Mass.). Percent involvement was calculated by dividing lesion area by total area.

apo E knockout mice [2] = experiment: Aortic cholesterol content (cholesterol extraction method) in LBP-immunized apo E knockout mice; assay type: in vivo, mouse; conditions: for Arterial Wall Cholesterol: apo E mice
Procedure: as §1, §2, §3
A second analysis was done to measure aortic atherosclerosis by a cholesterol extraction method whereby cholesterol is determined as a unit weight of artery. This method may be more accurate in measuring lesion size than attempting to measure the thickness of many sections. Specifically, the weight of an artery was measured, then the cholesterol was extracted. Aortic cholesterol content was then measured by gas-liquid chromatography. The amount of cholesterol per unit weight of artery was then determined.

LDL [3] = target: T1, LDL (Homo sapiens, UniProt P04114); experiment: Affinity coelectrophoresis (ACE) assay of LBP binding to LDL; conditions: LDL 540 to 14 nM cast in gel
T1 construct: LDL was prepared from the plasma of normolipemic donors; from tissue; host or cells: blood plasma of normolipemic donors, density ultracentrifugation
T1 sequence (P04114 28-4563): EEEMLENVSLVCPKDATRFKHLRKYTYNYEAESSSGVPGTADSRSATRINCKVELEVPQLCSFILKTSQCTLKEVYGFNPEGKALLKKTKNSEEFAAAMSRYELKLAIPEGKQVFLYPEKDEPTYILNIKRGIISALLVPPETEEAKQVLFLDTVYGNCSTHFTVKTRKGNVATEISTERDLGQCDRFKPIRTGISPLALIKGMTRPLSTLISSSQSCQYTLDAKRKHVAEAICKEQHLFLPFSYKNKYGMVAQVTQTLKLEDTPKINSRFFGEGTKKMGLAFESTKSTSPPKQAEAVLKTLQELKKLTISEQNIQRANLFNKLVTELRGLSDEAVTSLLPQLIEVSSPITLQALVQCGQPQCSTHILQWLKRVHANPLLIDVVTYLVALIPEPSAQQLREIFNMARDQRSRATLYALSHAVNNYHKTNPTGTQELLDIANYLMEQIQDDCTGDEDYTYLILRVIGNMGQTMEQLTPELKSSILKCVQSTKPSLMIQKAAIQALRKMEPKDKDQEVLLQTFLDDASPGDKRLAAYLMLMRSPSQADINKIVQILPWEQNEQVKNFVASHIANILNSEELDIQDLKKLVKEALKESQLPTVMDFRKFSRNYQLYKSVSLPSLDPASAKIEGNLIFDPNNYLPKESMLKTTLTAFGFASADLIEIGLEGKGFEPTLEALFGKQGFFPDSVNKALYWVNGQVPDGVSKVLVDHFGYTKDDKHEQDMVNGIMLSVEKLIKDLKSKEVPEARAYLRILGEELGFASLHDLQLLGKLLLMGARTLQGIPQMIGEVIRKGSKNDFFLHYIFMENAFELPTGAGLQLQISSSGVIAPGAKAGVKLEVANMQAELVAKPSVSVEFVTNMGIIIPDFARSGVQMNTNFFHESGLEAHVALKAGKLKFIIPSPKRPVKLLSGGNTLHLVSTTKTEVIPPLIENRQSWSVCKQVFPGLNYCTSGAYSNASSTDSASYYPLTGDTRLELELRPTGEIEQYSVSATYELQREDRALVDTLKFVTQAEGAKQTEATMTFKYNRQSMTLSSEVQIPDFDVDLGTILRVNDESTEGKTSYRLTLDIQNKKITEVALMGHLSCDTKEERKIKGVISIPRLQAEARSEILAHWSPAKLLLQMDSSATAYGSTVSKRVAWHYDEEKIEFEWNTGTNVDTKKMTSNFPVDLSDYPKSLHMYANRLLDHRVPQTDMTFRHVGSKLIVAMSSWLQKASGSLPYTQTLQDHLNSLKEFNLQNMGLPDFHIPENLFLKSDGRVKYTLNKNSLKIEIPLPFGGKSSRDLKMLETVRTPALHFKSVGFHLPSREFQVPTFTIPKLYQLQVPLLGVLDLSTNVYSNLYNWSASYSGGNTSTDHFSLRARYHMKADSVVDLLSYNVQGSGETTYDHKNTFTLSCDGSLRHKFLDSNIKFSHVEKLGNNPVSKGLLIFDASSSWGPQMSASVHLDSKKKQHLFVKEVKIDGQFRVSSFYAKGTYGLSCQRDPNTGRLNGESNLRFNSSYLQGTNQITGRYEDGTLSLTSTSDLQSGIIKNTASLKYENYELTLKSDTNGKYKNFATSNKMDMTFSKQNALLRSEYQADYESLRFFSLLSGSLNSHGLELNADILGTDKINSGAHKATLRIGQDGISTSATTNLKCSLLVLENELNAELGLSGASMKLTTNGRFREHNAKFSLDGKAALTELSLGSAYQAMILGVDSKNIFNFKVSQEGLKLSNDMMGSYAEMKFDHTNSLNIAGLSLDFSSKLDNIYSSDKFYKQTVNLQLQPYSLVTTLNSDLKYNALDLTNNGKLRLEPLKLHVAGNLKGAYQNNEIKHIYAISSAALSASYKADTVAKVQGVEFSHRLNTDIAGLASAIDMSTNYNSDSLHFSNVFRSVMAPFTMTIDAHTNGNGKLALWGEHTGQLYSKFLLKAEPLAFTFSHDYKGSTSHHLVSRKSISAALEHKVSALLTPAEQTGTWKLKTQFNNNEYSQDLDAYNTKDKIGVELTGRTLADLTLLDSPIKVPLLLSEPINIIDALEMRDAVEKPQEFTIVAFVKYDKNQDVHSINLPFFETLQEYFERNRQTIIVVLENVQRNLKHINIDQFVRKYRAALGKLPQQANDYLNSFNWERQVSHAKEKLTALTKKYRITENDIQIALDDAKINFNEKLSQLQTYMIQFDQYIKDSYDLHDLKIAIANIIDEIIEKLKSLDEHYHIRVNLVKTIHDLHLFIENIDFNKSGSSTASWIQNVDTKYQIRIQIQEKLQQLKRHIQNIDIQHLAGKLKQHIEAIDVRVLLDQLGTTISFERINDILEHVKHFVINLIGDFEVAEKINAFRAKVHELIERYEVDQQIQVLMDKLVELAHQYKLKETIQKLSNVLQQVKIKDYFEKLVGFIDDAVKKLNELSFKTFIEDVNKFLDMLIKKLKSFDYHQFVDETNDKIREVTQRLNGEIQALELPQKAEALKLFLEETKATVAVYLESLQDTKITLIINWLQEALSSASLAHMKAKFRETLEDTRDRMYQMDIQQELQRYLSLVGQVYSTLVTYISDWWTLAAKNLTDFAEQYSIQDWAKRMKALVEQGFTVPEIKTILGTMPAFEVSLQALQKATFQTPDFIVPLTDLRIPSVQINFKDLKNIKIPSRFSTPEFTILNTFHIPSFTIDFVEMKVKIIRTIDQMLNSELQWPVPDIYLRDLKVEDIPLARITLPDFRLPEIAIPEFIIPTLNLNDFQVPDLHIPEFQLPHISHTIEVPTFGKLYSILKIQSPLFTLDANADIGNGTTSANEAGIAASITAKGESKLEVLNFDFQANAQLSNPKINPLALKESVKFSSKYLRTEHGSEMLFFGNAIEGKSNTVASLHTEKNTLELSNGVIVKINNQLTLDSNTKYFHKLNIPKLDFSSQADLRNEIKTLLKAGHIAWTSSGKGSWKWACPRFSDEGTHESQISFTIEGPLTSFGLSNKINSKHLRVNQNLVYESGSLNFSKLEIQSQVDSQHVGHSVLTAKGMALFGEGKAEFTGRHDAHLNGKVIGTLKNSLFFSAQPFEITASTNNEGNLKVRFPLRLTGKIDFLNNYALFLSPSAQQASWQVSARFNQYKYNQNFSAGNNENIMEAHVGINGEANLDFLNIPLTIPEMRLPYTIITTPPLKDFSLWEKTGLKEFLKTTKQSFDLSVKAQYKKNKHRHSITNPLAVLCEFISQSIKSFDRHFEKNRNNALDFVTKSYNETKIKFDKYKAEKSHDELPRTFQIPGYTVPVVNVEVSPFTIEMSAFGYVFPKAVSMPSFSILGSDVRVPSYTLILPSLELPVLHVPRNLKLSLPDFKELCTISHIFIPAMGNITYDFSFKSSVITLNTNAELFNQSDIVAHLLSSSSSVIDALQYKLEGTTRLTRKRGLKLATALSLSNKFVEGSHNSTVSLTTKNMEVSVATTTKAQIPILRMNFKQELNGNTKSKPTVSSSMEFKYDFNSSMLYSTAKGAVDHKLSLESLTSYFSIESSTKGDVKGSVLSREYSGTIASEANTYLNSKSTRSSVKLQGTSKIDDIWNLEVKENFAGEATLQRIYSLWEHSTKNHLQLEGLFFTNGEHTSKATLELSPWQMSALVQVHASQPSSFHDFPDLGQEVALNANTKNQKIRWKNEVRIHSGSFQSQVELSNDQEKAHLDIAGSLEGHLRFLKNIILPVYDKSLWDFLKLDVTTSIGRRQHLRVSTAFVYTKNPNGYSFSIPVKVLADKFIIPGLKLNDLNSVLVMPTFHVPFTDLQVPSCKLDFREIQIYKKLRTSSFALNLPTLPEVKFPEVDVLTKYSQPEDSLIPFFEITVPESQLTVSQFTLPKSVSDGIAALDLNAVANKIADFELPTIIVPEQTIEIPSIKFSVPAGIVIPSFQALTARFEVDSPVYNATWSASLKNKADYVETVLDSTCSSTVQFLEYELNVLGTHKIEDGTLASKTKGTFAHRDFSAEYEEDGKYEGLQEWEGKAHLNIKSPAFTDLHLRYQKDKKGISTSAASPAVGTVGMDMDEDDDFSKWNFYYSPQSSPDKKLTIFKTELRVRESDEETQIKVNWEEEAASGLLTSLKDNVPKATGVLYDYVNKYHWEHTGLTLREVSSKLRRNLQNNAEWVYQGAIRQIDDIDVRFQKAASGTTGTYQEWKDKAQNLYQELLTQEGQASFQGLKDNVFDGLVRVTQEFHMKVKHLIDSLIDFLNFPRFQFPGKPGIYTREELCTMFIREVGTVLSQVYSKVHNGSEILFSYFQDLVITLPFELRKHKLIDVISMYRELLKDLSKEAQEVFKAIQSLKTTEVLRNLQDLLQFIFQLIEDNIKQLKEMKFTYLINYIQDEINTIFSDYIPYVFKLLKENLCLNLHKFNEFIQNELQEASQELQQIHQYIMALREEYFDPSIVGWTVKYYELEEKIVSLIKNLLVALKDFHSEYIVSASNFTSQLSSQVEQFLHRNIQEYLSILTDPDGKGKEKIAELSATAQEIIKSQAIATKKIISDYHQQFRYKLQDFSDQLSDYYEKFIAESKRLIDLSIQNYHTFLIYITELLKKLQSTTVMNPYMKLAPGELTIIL
Procedure: (§4) Analysis of the affinity and specificity of recombinant rabbit LBP-1, LBP-2 or LBP-3 binding to LDL was carried out using the principle of affinity electrophoresis (Lee and Lander, Proc. Natl. Acad. Sci. USA 88:2768-2772 (1991)). Melted agarose (1%; 65° C.) was prepared in 50 mM sodium MOPS, pH 7.0; 125 mM sodium acetate, 0.5% CHAPS. A teflon comb consisting of nine parallel bars (45×4×4 mm/3 mm spacing between bars) was placed onto GelBond film (FMC Bioproducts, Rockland, Me.) fitted to a plexiglass casting tray with the long axis of the bars parallel to the long axis of the casting tray. A teflon strip (66×1×1 mm) was placed on edge with the long axis parallel to the short axis of the casting tray, at a distance of 4 mm from the edge of the teflon comb. Melted agarose (>65° C.) was then poured to achieve a height of approximately 4 mm. […] LDL or HDL samples were prepared in gel buffer (50 mM sodium MOPS, pH 7.0, 125 mM sodium acetate) at twice the desired concentration. Samples were then mixed with an equal volume of melted agarose (in 50 mM MOPS, pH 7.0; 125 mM sodium acetate; 50° C.), pipetted into the appropriate rectangular wells and allowed to gel. The binding affinity and specificity of LBP-1 and LBP-3 was tested using several concentrations of LDL (540 to 14 nM) and HDL (2840177 nM). A constant amount (0.003 nM-0.016 nM) of ^125I-labeled LBP-1, LBP-2 or LBP-3 (suspended in 50 mM sodium MOPS, pH 7.0; 125 mM sodium acetate; 0.5% bromophenol blue; 6% (wt/vol) sucrose) was loaded into the slot. Gels were electrophoresed at 70 v/2 hr/20° C. At the end of the run, the gels were air dried and retardation profiles were visualized by exposure of X-ray films to the gels overnight at −70° C., with intensifying screens.
Rabbit and human LBP-2 contain a long stretch of acidic amino acids at the amino terminal (rabbit LBP-2 amino acid residues 338 through 365 and human LBP-2 amino acid residues 329 through 354). […]

LDL [4] = target: T1, LDL; experiment: ACE competition: cold LBP versus radiolabeled LBP binding to LDL; conditions: fixed cold LDL and radiolabeled LBP, increasing cold recombinant LBP
Procedure: Competition studies were carried out using fixed concentrations of cold LDL and radiolabeled LBP-1 and increasing amounts of cold recombinant LBP-1 (6-31 μM). The ACE assay samples and gel were prepared as described herein.
Competition studies using fixed concentrations of cold LDL and clone 26 derived radiolabeled LBP-2 and increasing concentrations of cold recombinant LBP-2/clone 26 and LBP-a/clone 45 were carried out.

HDL = experiment: Affinity coelectrophoresis (ACE) assay of LBP binding to HDL; set-up: species or system human; conditions: HDL cast in gel
Procedure: as §4, with “A constant amount (0.003 nM-0.016 nM) of ^125I-labeled LBP-1, LBP-2 or LBP-3 (suspended in 50 mM sodium MOPS, pH 7.0; 125 mM sodium acetate; 0.5% bromophenol blue; 6% (wt/vol) sucrose) was loaded into the slot. Gels were electrophoresed at 70 v/2 hr/20° C. At the end of the run, the gels were air dried and retardation profiles were visualized by exposure of X-ray films to the gels overnight at −70° C., with intensifying screens.” left out

[5] = Body weight and serum lipids of LBP-immunized apo E knockout mice; assay type: in vivo, mouse; conditions: P>0.05
Procedure: as §2
Blood samples were analyzed for total cholesterol, HDL cholesterol, and triglyceride concentration with a commercially available total cholesterol and triglycerides assay kits (Sigma; St. Louis Mo.) using an ELISA format. HDL concentration was determined after Apo B containing lipoproteins were precipitated using heparin/MnCl2.
Data were analyzed using T-tests and Wilcoxons.

[6] = system: LDL receptor negative knockout mice; experiment: Lesions in LBP-immunized LDL receptor negative knockout mice; assay type: in vivo, mouse; conditions: P>0.05
[7] = system: ballooned deendothelialized rabbit aorta; experiment: Radiolabeled LDL accumulation in ballooned deendothelialized abdominal aorta after active immunization; assay type: in vivo; conditions: immunized with RIBI adjuvant; corrected for dosage and percent reendothelialization; 24 hr after 125I-LDL
Procedure: Immunity was induced in male New Zealand White rabbits (Hazelton Research Products, Denver, Pa.) as follows: A mixture of purified human recombinant LBP-2 or BHF-1 peptide (1 ml; 1 mg) and RIBI adjuvant (RIBI ImmunoChem Research, Inc., Hamilton, Mont.) was injected subcutaneously at 2-5 sites along the dorsal thoracic and abdominal regions of the rabbits. Blood was collected by venipuncture on days 1 (preimmune bleeding), 35, 63, and 91. Booster injections were administered on days 28 (500 μg; SC), 56 (250 μg; SC), and 84 (125 μg; SC).
On day 93, the abdominal aorta of immunized and control rabbits was deendothelialized using a Fogarty number 4 embolectomy catheter (Chang et al., Arteriosclerosis and Thrombosis 12:1088-1098 (1992)). Four weeks after ballooning, rabbits received a bolus injection of ^125I-labeled LDL (1 ml; i.v.). […] Blood samples were centrifuged for 30 min at 2000 rpm ([…]) and total activity present in the serum was determined using a Gamma counter. Total TCA precipitable counts were determined by addition of TCA to the serum to a final concentration of 10% followed by incubation for 10 min at 4° C. Serum samples were then centrifuged (2000 rpm; 30 min; […]) and total activity present in the supernate was determined. TCA precipitable counts were calculated by subtraction: total soluble counts minus counts present in the supernate after TCA precipitation. […]

Inhibition by cold LBP of radiolabeled LBP binding to LDL (LDL [4]): inhibited binding | Retardation of radiolabeled LBP migration by HDL (HDL): did not retard
B1: LBP-2: rabbit recombinant LBP-2 clone 26 (6-His tag), contains the acidic region (protein)
chain: PPPPQQPQPPPEGGAARAGGPARPVSLREVVRYLGGSSGAGGRLTRGRVQGLLEEEAAARGRLERTRLGALALPRGDRPGRAPPAASARAARNKRAGEERVLEKEEEEEEEEDDEDDDDDVVSEGSEVPESDRPAGAQHHQLNGGERGPQTAKERAKEWSLCGPHPGQEEGRGPAAGSGTRQVFSMAALSKEGGSASSTTGPDSPSPVPLPPGKPALPGADGTPFGCPAGRKEKPADPVEWTVMDVVEYFTEAGFPEQATAFQEQEIDGKSLLLMQRTDVLTGLSIRLGPALKIYEHHIKVLQQGHFEDDDPEGFLG
modifications: left off: small tags and cut ends
notes: rabbit recombinant LBP-2 clone 26 (6-His tag), contains the acidic region
Effect of immunization on lesions / lesion area (apo E knockout mice [1]): significant effect | Lesion Area % Coverage (apo E knockout mice [1]): 6.01% | Effect of immunization on arterial wall cholesterol content (apo E knockout mice [2]; apo E knockout mice, once outliers were deleted): significant effect | Arterial Wall Cholesterol (apo E knockout mice [2]; 26 weeks of age, control 6.33): 3.28 ug cholesterol/mg aorta | Arterial Wall Cholesterol (apo E knockout mice [2]; outliers deleted): 1.83 ug cholesterol/mg aorta | Retardation of radiolabeled LBP migration through the gel by LDL (LDL [3]): concentration-dependent, saturable manner | Retardation of radiolabeled LBP migration through the gel by LDL (LDL [3]; listed as clone 26): concentration-dependent, saturable, manner | Effect of immunization on body weight [5]: did not have a significant effect

Inhibition by cold LBP of radiolabeled LBP binding to LDL (LDL [4]): inhibited binding | Retardation of radiolabeled LBP migration by HDL (HDL): did not retard
B2: LBP-3: rabbit recombinant LDL binding protein LBP-3 (6-His tag), SEQ ID NO: 5 (protein, listed as Oryctolagus cuniculus)
chain: MKNQDKKNGAAKQPNPKSSPGQPEAGAEGAQGRPGRPAPAREAEGASSQAPGRPEGAQAKTAQPGALCDVSEELSRQLEDILSTYCVDNNQGAPGEDGVQGEPPEPEDAEKSRAYVARNGEPEPGTPVVNGEKETSKAEPGTEEIRTSDEVGDRDHRRPQEKKKAKGLGKEITLLMQTLNTLSTPEEKLAALCKKYAELLEEHRNSQKQMKLLQKKQSQLVQEKDHLRGEHSKAILARSKLESLCRELQRHNRSLKEEGVQRAREEEEKRKEVTSHFQMTLNDIQLQMEQHNERNSKLRQENMELAERLKKLIEQYELREEHIDKVFKHKDLQQQLVDAKLQQAQEMLKEAEERHQREKDFLLKEAVESQRMCELMKQQETHLKQQLALYTEKFEEFQNTLSKSSEVFTTFKQEMEKMTKKIKKLEKETTMYRSRWESSNKALLEMAEEKTLRDKELEGLQVKIQRLEKLCRALQTERNDLNKRVQDLSAGGQGPVSDSGPERRPEPATTSKEQGVEGPGAQVPNSPRATDASCCAGAPSTEASGQTGPQEPTTATA
modifications: 6-His tag
Effect of immunization on lesions [6]: did not have a significant effect | Effect of immunization on lesions / lesion area (apo E knockout mice [1]): did not have a significant effect | Lesion Area % Coverage (apo E knockout mice [1]): 7.14% | Arterial Wall Cholesterol (apo E knockout mice [2]; 26 weeks of age, control 6.33): 4.48 ug cholesterol/mg aorta | Retardation of radiolabeled LBP migration through the gel by LDL (LDL [3]): concentration-dependent, saturable manner | Effect of immunization on body weight [5]: did not have a significant effect

B3: recombinant human LBP-2: purified human recombinant LBP-2 used as immunogen with RIBI adjuvant (protein)
chain: EERVLEKEEEEDDDEDEDEEDDVSEGSEVPESDRPAGAQHHQLNGERGPQSAKERVKEWTPCGPHQGQDEGRGPAPGSGTRQVFSMAAMNKEGGTASVATGPDSPSPVPLPPGKPALPGADGTPFGCPPGRKEKPSDPVEWTVMDVVEYFTEAGFPEQATAFQEQEIDGKSLLLMQRTDVLTGLSIRLGPALKIYEHHIKVLQQGHFEDDDPDGFLG
Accumulation of radiolabeled LDL in ballooned abdominal aorta versus nonimmune-ballooned rabbits [7]: lower accumulation
